Reference: patent US20240400689A1 (ANTENGENE BIOLOGICS, published 2024)
Substitutions are numbered along the chain they refer to.

T1: human CD276 protein (human, UniProt Q5ZPR3 29-534)
T1 construct: whole, on cells; for SKOV3 and the other cancer lines the protein is the cells' own; also called B7-H3; B7H3
T1 sequence (looked up): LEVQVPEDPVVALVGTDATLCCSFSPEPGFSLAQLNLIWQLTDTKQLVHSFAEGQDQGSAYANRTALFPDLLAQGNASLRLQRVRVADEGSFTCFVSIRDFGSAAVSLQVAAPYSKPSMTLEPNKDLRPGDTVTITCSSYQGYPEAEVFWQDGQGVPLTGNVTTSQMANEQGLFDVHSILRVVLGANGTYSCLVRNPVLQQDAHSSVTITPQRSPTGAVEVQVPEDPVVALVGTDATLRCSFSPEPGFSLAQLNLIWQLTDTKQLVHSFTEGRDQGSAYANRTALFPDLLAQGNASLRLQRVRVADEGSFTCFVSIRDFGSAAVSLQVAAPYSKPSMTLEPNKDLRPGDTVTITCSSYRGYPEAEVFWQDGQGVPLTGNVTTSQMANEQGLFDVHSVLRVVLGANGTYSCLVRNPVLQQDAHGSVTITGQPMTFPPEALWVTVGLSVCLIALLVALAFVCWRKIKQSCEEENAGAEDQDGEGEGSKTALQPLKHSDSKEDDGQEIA

T2: mouse CD276 protein (mouse, UniProt Q8VE98 29-316)
T2 construct: whole, on cells; also called mCD276; CHO-S-mCD276
T2 sequence (looked up): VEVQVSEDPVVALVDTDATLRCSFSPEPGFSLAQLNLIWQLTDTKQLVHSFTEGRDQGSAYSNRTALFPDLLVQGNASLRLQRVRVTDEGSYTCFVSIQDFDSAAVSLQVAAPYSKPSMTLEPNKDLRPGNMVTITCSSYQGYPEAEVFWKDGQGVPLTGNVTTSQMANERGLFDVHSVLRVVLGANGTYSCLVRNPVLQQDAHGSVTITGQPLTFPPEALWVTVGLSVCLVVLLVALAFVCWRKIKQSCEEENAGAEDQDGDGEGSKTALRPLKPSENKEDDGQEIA

B1: 23-F10-G4-F11 (human IgG1 chimeric antibody) (antibody, V domains shown)
VH: EVQLQESGPDLVRPGALVKLSCKSSGFNIKDYPIHWVRQRPEQGLEWIGWFDPDNGNVIYDPRFQGKASITADTSSNTAYLQLNSLTSEDTAVYYCSSPYGAMDYWGQGTSVTVSS
VL: QIVLTQSPEIMSASPGEKVTMTCSASSSVSYIHWYQQKSGTSPKRWIYDTSKLASGVPARFSGSGSGTSYSLTIRSMEAEDAATYYCQQGSSNPRTFGGGTKLEIK
notes: human IgG1 chimeric antibody of the mouse clone
B2: 23-F10-G4-F11 (antibody, V domains shown)
VH: B1 VH
VL: B1 VL
notes: mouse monoclonal antibody (hybridoma)
B3: 9-E8-F9-C10 (human IgG1 chimeric antibody) (antibody, V domains shown)
VH: EVQLQQSGAELVRPGTSVKISCKASGYAFSDYWLSWVKQRPGHGLEWIGDICPGSGNIYYNERFKDKVILTADRSSSTAYLQFSSLTSEDSVVYFCTRLITRVIDYWGQGTSVTVST
VL: ENVLTQSPAIMSASPGEKVTMTCSASSSVNYMHWYQQKSSTSPKLWIYDTSKLSSGVPGRFSGSGSGNSYSLTISSMEAEDVATYYCFQGSGYPLTFGAGTKLELK
B4: 5-D1-G6-D9 (human IgG1 chimeric antibody) (antibody, V domains shown)
VH: EVQLQESGAELVKPGASVKLSCKTSGLTFSTNYISWLKQKPGQSLEWIAWIYGGNGGTSYNQRFTGKAQLTVDTSSSTAYMQFSSLTTEDSAIYYCTSHDYYGGPMDYWGQGTSVTVSS
VL: DIQMTQTTSSLSASLGDRVTISCRASQDISNYLNWYQQKPDGTVKLLIYFTSRLHSGVPSRFSASGSGTDYSLTISNLEQEDIATYFCQQTNTLPWTFGGGTKLEIK
B5: 5-D1-G6-D9 (antibody, V domains shown)
VH: B4 VH
VL: B4 VL
notes: as for B2
B6: 2-A7-B10-A3 (human IgG1 chimeric antibody) (antibody, V domains shown)
VH: QVQLQQSGAELVRPGVSVKISCKGSGYTFTDYAMHWVKQSHAKSLEWIGVINTNYVNTSYNQKFKGKATMTVDKSSSTAFMELARLTSEDSAIYYCARGGKYGNYVFFFAYWGQGTLVTVSA
VL: B4 VL with F50Y, A64G, T91G, W96Y
B7: 18-F9-D8-G7 (antibody, V domains shown)
VH: EVQLQQSGPELVRPGVSVKISCKGSGYTFTDYAMHWVKQSHAQSLEWIGIINTYSGDTNYNQKFKGKATMTVDKSSSTAYMGLARLTSEDSAIFYCARGGGNYPYWYFDVWGAGTTVTVSS
VL: ENVLTQSPAIMSASPGEKVTMTCRASSSVSSSYLHWYQQKSGDSPKLWIYSTSNLASGVPARFSGSGSGTSYSLTISSVEAEDAATYYCQQFSVYPLTFGAGTKLEIK
notes: as for B2
B8: 3-F2-E7-F9 (antibody, V domains shown)
VH: QVQLQQSGPELVRPGVSVKISCKGSGYTFTDYTMHWVKESHAKSLEWIGVISTYYGNTNYNQKFKGKATLTVDKSSSTAYMELAGLTSEDSAIYYCARASYGSGYGPYYWYFDVWGAGTTVTVSS
VL: DIQMTQSPASLFASVGETVTITCRASEKIYSYLAWYFQKQGKSPQFLVYNANALAEGVPSRFSGSGSGTQFSLKINSLQPEDFGTYYCQHHYGTPVTFGAGSKLELK
notes: as for B2
B9: 20-A2-D10-G8 (antibody, V domains shown)
VH: B8 VH with K43Q, K63N
VL: B8 VL with N76K, T94S
notes: as for B2
B10: 24-C10-F9-G7 (antibody, V domains shown)
VH: B8 VH with Q1E, Q6E, Y32H, K43Q, K63N
VL: B8 VL
notes: as for B2
B11: 6-D8-E7-A11 (antibody, V domains shown)
VH: QVHLQQPGAELVKPGASVKLSCKASGYTFTNYWMHWVKRRPGQGLEWIGMIHPNSGTTSFNEKFKSKATLTVDKSSSTAYMQLSSLTSEDSAVYYCAGYYGSSFSWFTYWGQGTLVTVSA
VL: QAVVTQESALTTSPGGTVILTCRSSTGAVTTSNFANWVQEKPDHLFTGLIGGTSNRAPGVPVRFSGSLIGDKAALTITGAQTEDDAMYFCALWYSTHYVFGGGTKVTVL
notes: as for B2
B12: 16-C6-F7-F5 (antibody, V domains shown)
VH: QIQLVQSGPEVKKPGETVKISCKASGYTFTKYGINWVKQAPGEGLKWMGWIWTYTGKPTYGDDFKGRFAFSLETSASTAYLQISDLKIEDMATYFCARDDGYYYTMNYWGQGTSVTVSS
VL: DIVMTQTPLSLPVSLGDQASISCRSSQSLLHTNGDTYLHWYLQKAGQPPKLLIYKVSNRFSGVPDRFSGSGSGTDFTLKISRVEAEDLGVYFCSQSTHIPWTFGGGTKLEIK
notes: as for B2
B13: 26-D2-D6-B12 (antibody, V domains shown)
VH: QIQLVQSGPELKKPGETVKISCKASGYIFRNYGMNWVKQAPGKGLKWMGWINSYTGKPTYVDDFKGRFAFSLETSASTAYLQINNLKNEDMATYFCARDDGYWYTMDYWGQGTSVTVSS
VL: B12 VL with I2V, L30V, T32S, D35H, A45P, P48S, I99V
notes: as for B2
B14: 16-G3-D10-C10 (antibody, V domains shown)
VH: B13 VH with I28T, A40G, G44D, S53P, K57E, V61I, D62G, S77N, T78S, K87N
VL: B12 VL with I2V, L9P, S22P, L30V, T32S, D35I, A45P, P48S, I99V
notes: as for B2
B15: 11-G10-B4-B11 (antibody, V domains shown)
VH: DVQLQESGPGLVKPSQSLSLTCTVTGYSITSDYAWNWIRQFPGNKLEWMGYISYSGSTSYNPSLKSRISITRDTSKNQFFLQLNSVTTEDTATYYCARGGPWFAYWGQGTLVTVSA
VL: B12 VL with I2V, L30V, T32S, D35N, A45P, P48S, I99V, W101F, G105S
notes: as for B2
B16: 21-B3-B1-H5 (antibody, V domains shown)
VH: B13 VH
VL: B12 VL with I2V, L30V, T32S, D35H, A45P, P48S, I99V
notes: as for B2
B17: 22-E11-C3-F2 (antibody, V domains shown)
VH: QIQLVQSGPELKRPGETVKISCKASGYSFTNYGMNWVKQAPGKGLKWMGWINPYTGEPTYADDFKGRFAMSLETSASAAYLQINNLKNEDMATYFCGRDDGYHYTMNYWGQGTSVTVSS
VL: B12 VL with I2V, T7P, L30I, T32S, A45P, P48S, N58I, H98Y, I99V
notes: as for B2
B18: 11-C12-F4-F6 (antibody, V domains shown)
VH: B13 VH with I28T, Y32F, A40G, S53P, K57E, D62G
VL: B12 VL with I2V, L9P, S22P, L30V, T32S, D35I, A45P, P48S, I99V
notes: as for B2

Legend:
human CD276 protein [1] = biological target: T1, human CD276 protein; assay: FACS on SKOV3 cells
Description: Sequences of 31 mouse antibodies from Table 5 were selected to generate and produce human IgG1 chimeric antibodies. The binding affinity of these antibodies and bench mark antibody, Enoblituzumab (see U.S. Pat. No. 8,802,091, MGA271, specifically with a construct designated as hBRCA84D-2) and MGC018 (an antibody-drug-conjugate, in which the mAb MGA017 (human IgG1) is conjugated via a cleavable linker to the prodrug seco-DUocarmycin hydroxyBenzamide Azaindole (DUBA), an alkylating agent that can damage DNA in both dividing and non-dividing cells, thereby causing cell death) with human patient derived ovarian cancer cell line, SKOV3, was determined by FACS analysis.
1. Digested cells using Trypsin (1×); Centrifuged the harvested cells at 300 g for 3 min and discarding the supernatant. […] 2. Washed the cells 2 times with FACS buffer by centrifuging at 300 g for 3 min and discarding the supernatant. [0445] 3. […] Kept the cells in dark for FACS analysis.

human CD276 protein [2] = biological target: T1, human CD276 protein; assay: cell-based or functional assay
human CD276 protein [3] = biological target: T1, human CD276 protein; assay: FACS on CHO-S-hCD276 cells
Experimental: (§1) Screening & Expansion—The subcloning plates were screened by protein or cell-based Elisa, and the subclones with good binding ability were expanded to 24-wells for confirmation tests. The specificity and cross-reactivity of these subclones were confirmed with FACS analysis. Briefly, parental CHO-S cells, CHO-S-hCD276, CHO-S cell line stably over-expressing Macaca fascicularis CD276, CHO-K1 S, cell line stably over-expressing mouse CD276 were incubated with antibodies produced by each subclone respectively. Fluorescent dye-conjugated secondary antibody was used to detect the binding of the primary antibody with the cells. Median fluorescence intensity was measured by FACS analysis.

mouse CD276 protein = biological target: T2, mouse CD276 protein; assay: FACS on CHO-S-mCD276 cells
Experimental: as §1

[4] = biological target: T3, Macaca fascicularis CD276 (Macaca fascicularis); assay: FACS on CHO-S-cynoCD276 cells
T3 construct: whole, on cells; also called cynomolgus monkey CD276; cynoCD276
Experimental: as §1

Binder	EC50 (human CD276 protein [1]) [µg/mL]	MFI (Max) (human CD276 protein [1])	EC50 of antibody induced ADCC effect on SKOV3 (human CD276 protein [2]) [µg/mL]	FACS MFI (human CD276 protein [3])	FACS MFI (mouse CD276 protein)	FACS MFI [4]
B1	4.42	6720	0.137			
B2				127000	1300	36700
B3			4.05			
B4			1.55			
B5				45300	1530	62200
B6			4.21			
B7				127000	20600	83500
B8				52300	1140	35700
B9				77100	1260	9020
B10				85100	1180	15200
B11				37900	92600	101000
B12				141000	1830	19500
B13				47500	1310	63100
B14				23200	1320	6190
B15				32800	2800	26400
B16				71500	1340	20200
B17				74300	1670	56500
B18				41900	1340	5140
